Literature values in PMC7642319.

Target: NbpSH3 SH3 (Saccharomyces cerevisiae) (UniProt Q12163)
Sequence (Q12163 107-174): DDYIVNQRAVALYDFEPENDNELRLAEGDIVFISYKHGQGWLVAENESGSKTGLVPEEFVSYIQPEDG

Chain of Ste20 (Q03497 2-939): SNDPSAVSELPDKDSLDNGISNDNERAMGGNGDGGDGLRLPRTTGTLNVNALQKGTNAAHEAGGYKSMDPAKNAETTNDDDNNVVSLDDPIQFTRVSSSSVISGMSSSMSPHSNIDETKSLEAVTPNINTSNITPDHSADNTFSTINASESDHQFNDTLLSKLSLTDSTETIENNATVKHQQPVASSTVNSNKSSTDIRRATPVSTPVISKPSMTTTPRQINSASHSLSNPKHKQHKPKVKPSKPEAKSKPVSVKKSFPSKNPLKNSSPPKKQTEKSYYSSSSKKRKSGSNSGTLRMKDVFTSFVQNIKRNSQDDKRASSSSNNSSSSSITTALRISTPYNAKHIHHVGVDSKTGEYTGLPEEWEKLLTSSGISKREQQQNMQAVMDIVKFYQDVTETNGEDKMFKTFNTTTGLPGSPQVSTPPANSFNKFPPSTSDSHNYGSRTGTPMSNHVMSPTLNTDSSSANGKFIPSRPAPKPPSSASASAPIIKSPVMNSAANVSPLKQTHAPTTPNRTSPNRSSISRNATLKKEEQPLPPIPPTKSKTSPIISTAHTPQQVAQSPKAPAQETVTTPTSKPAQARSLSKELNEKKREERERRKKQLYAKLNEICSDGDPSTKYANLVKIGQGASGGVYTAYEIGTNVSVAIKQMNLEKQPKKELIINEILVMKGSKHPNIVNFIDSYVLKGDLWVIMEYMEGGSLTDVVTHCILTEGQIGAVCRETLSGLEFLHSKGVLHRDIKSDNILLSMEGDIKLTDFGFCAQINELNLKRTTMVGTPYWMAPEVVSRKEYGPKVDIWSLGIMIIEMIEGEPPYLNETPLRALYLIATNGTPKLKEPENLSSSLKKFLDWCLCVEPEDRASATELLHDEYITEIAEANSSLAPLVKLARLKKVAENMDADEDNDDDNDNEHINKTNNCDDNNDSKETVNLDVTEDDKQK

Kd: 200 nM
Substance: Ste20 (from UniProt Q03497)
